Target: MBP-Brh2 (U. maydis)
Experiment: pull-down

## hexahistidine (His)-tagged Dss1 (natural protein)
  fold lower level of Dss1 in the DNA-bound fraction than with Brh2Δ362–493::OB-AB: > 20 fold
